Assay: Biodistribution of radiometal-DOTA-BBN conjugates in CF1 normal mice
Conditions: 1 hour post-injection; for tissue uptake at 1 h: Avg % ID/gm
[1] = CF-1, mouse, in vivo, iv, total radioactivity, Stomach

Structure (SMILES)	Avg % ID, Blood [% ID]	Avg % ID, Carcass [% ID]	Avg % ID, Heart [% ID]	Avg % ID, Kidney [% ID]	Avg % ID, L. Intestine [% ID]	Avg % ID, Liver [% ID]	Avg % ID, Lung [% ID]	Avg % ID, Muscle [% ID]	Avg % ID, Pancreas [% ID]	Avg % ID, S. Intestine [% ID]	Avg % ID, Spleen [% ID]	Avg % ID, Stomach [% ID]	Avg % ID/gm, Blood [% ID/gm]	Avg % ID/gm, Heart [% ID/gm]	Avg % ID/gm, Kidney [% ID/gm]	Avg % ID/gm, L. Intestine [% ID/gm]	Avg % ID/gm, Liver [% ID/gm]	Avg % ID/gm, Muscle [% ID/gm]	Avg % ID/gm, S. Intestine [% ID/gm]	Avg % ID/gm, Stomach [% ID/gm]	other results
CSCC[C@H](NC(=O)[C@H](CC(C)C)NC(=O)[C@H](Cc1cnc[nH]1)NC(=O)CNC(=O)[C@@H](NC(=O)[C@H](C)NC(=O)[C@H](Cc1c[nH]c2ccccc12)NC(=O)[C@H](CCC(N)=O)NC(=O)CCNC(=O)CN1CCN(CC(=O)O)CCN(CC(=O)O)CCN(CC(=O)O)CC1)C(C)C)C(N)=O [149Pm-DOTA-β-Ala-BBN[7-14]NH2]	0.30 ± 0.32	1.64 ± 0.38	0.02 ± 0.02	0.61 ± 0.41	0.31 ± 0.06	0.23 ± 0.07	0.06 ± 0.04	0.00 ± 0.01	0.46 ± 0.23	0.95 ± 0.19	0.02 ± 0.04	0.10 ± 0.03	0.21 ± 0.22	0.17 ± 0.24	2.05 ± 1.63	0.42 ± 0.08	0.15 ± 0.05	0.04 ± 0.10	0.63 ± 0.20	0.19 ± 0.11	Avg % ID/gm, Lung: 0.34 ± 0.30 % ID/gm; Avg % ID/gm, Pancreas: 2.40 ± 1.33 % ID/gm; Avg % ID/gm, Spleen: 0.16 ± 0.31 % ID/gm
CSCC[C@H](NC(=O)[C@H](CC(C)C)NC(=O)[C@H](Cc1c[nH]cn1)NC(=O)CNC(=O)[C@@H](NC(=O)[C@H](C)NC(=O)[C@H](Cc1c[nH]c2ccccc12)NC(=O)[C@H](CCC(N)=O)NC(=O)CCCCCCCCCCNC(=O)CN1CCN(CC(=O)O)CCN(CC(=O)O)CCN(CC(=O)O)CC1)C(C)C)C(N)=O [177Lu-DOTA-11-Aun-BBN[7-14]NH2] [metal not drawn]	0.47 ± 0.54	6.69 ± 2.48	0.19 ± 0.29	1.76 ± 0.25	5.03 ± 0.46	2.26 ± 0.46	0.17 ± 0.22	0.11 ± 0.18	6.89 ± 1.20	17.10 ± 3.60	0.24 ± 0.24	0.64 ± 0.35	0.78 ± 1.10	1.56 ± 2.40	4.97 ± 0.61	6.31 ± 0.86	1.65 ± 0.29	0.75 ± 1.12	12.58 ± 1.73	1.82 ± 1.12	Avg % ID/gm, Lung: 0.73 ± 0.81 % ID/gm; Avg % ID/gm, Pancreas: 35.48 ± 2.39 % ID/gm; Avg % ID/gm, Spleen: 1.78 ± 1.87 % ID/gm
CSCC[C@H](NC(=O)[C@H](CC(C)C)NC(=O)[C@H](Cc1cnc[nH]1)NC(=O)CNC(=O)[C@@H](NC(=O)[C@H](C)NC(=O)[C@H](Cc1c[nH]c2ccccc12)NC(=O)[C@H](CCC(N)=O)NC(=O)CCNC(=O)CN1CCN(CC(=O)O)CCN(CC(=O)O)CCN(CC(=O)O)CC1)C(C)C)C(N)=O [111In-DOTA-β-Ala-BBN[7-14]NH2, metal not drawn]	–	–	–	–	–	–	–	–	–	–	–	–	–	–	–	–	–	–	–	–	tissue uptake dose at 1 h (CF-1, mouse, in vivo, iv, total radioactivity, Avg % ID, Blood): 0.23 ± 0.1 %ID; tissue uptake dose at 1 h (CF-1, mouse, in vivo, iv, total radioactivity, Avg % ID, Carcass): 2.23 ± 0.36 %ID; tissue uptake dose at 1 h (CF-1, mouse, in vivo, iv, total radioactivity, Avg % ID, Kidney): 0.62 ± 0.1 %ID; tissue uptake dose at 1 h (CF-1, mouse, in vivo, iv, total radioactivity, Avg % ID, Liver): 0.17 ± 0.03 %ID; tissue uptake dose at 1 h (CF-1, mouse, in vivo, iv, total radioactivity, Avg % ID, Lung): 0.03 ± 0.02 %ID; tissue uptake dose at 1 h (CF-1, mouse, in vivo, iv, total radioactivity, Avg % ID, Stomach): 0.13 ± 0.02 %ID; dose excreted at 1 h (CF-1, mouse, in vivo, iv, total radioactivity, Avg % ID, Urine): 92.41 ± 0.9%; tissue uptake at 1 h (CF-1, mouse, in vivo, iv, total radioactivity, Blood): 0.11 ± 0.06 %ID/g; tissue uptake at 1 h (CF-1, mouse, in vivo, iv, total radioactivity, Kidney): 1.4 ± 0.27 %ID/g; tissue uptake at 1 h (CF-1, mouse, in vivo, iv, total radioactivity, Liver): 0.11 ± 0.02 %ID/g; tissue uptake at 1 h [1]: 0.3 ± 0.07 %ID/g
CSCC[C@H](NC(=O)[C@H](CC(C)C)NC(=O)[C@H](Cc1c[nH]cn1)NC(=O)CNC(=O)[C@@H](NC(=O)[C@H](C)NC(=O)[C@H](Cc1c[nH]c2ccccc12)NC(=O)[C@H](CCC(N)=O)NC(=O)CCCCNC(=O)CN1CCN(CC(=O)O)CCN(CC(=O)O)CCN(CC(=O)O)CC1)C(C)C)C(N)=O [177Lu-DOTA-5-Ava-BBN[7-14]NH2] [metal not drawn]	0.35 ± 0.31	2.77 ± 0.75	0.04 ± 0.05	0.69 ± 0.33	3.52 ± 1.37	0.14 ± 0.06	0.08 ± 0.15	0.09 ± 0.12	3.78 ± 1.09	3.80 ± 1.87	0.18 ± 0.12	0.73 ± 1.33	0.22 ± 0.19	0.34 ± 0.35	2.03 ± 1.02	3.78 ± 1.23	0.09 ± 0.04	0.67 ± 0.90	2.55 ± 1.31	1.48 ± 2.25	Avg % ID/gm, Lung: 0.47 ± 0.84 % ID/gm; Avg % ID/gm, Pancreas: 16.41 ± 1.38 % ID/gm; Avg % ID/gm, Spleen: 1.26 ± 0.69 % ID/gm
CSCC[C@H](NC(=O)[C@H](CC(C)C)NC(=O)[C@H](Cc1cnc[nH]1)NC(=O)CNC(=O)[C@@H](NC(=O)[C@H](C)NC(=O)[C@H](Cc1c[nH]c2ccccc12)NC(=O)[C@H](CCC(N)=O)NC(=O)CN1CCN(CC(=O)O)CCN(CC(=O)O)CCN(CC(=O)O)CC1)C(C)C)C(N)=O [177Lu-DOTA-0-BBN[7-14]NH2] [metal not drawn]	0.39 ± 0.34	4.34 ± 2.64	0.01 ± 0.02	0.58 ± 0.10	0.09 ± 0.12	0.19 ± 0.10	0.04 ± 0.06	0.02 ± 0.03	0.06 ± 0.10	1.27 ± 1.03	0.01 ± 0.01	0.05 ± 0.11	0.58 ± 0.96	0.04 ± 0.09	1.21 ± 0.31	0.07 ± 0.09	0.09 ± 0.06	0.09 ± 0.15	0.75 ± 0.60	0.10 ± 0.21	Avg % ID/gm, Lung: 0.19 ± 0.26 % ID/gm; Avg % ID/gm, Pancreas: 0.18 ± 0.28 % ID/gm; Avg % ID/gm, Spleen: 0.04 ± 0.09 % ID/gm
CSCC[C@H](NC(=O)[C@H](CC(C)C)NC(=O)[C@H](Cc1c[nH]cn1)NC(=O)CNC(=O)[C@@H](NC(=O)[C@H](C)NC(=O)[C@H](Cc1c[nH]c2ccccc12)NC(=O)[C@H](CCC(N)=O)NC(=O)CCCCNC(=O)CN1CCN(CC(=O)O)CCN(CC(=O)O)CCN(CC(=O)O)CC1)C(C)C)C(N)=O [149Pm-DOTA-5-Ava-BBN[7-14]NH2]	0.47 ± 0.11	6.16 ± 0.75	0.06 ± 0.09	1.11 ± 0.29	3.18 ± 1.18	0.37 ± 0.20	0.17 ± 0.21	0.03 ± 0.04	4.25 ± 0.43	7.70 ± 0.66	0.27 ± 0.13	0.77 ± 0.74	0.27 ± 0.06	0.42 ± 0.59	2.81 ± 0.66	3.53 ± 1.10	0.23 ± 0.13	0.24 ± 0.25	5.15 ± 1.20	1.90 ± 1.60	Avg % ID/gm, Lung: 0.78 ± 1.08 % ID/gm; Avg % ID/gm, Pancreas: 22.1 ± 5.40 % ID/gm; Avg % ID/gm, Spleen: 2.37 ± 1.36 % ID/gm
CSCC[C@H](NC(=O)[C@H](CC(C)C)NC(=O)[C@H](Cc1cnc[nH]1)NC(=O)CNC(=O)[C@@H](NC(=O)[C@H](C)NC(=O)[C@H](Cc1c[nH]c2ccccc12)NC(=O)[C@H](CCC(N)=O)NC(=O)CCCCCCCNC(=O)CN1CCN(CC(=O)O)CCN(CC(=O)O)CCN(CC(=O)O)CC1)C(C)C)C(N)=O [149Pm-DOTA-8-Aoc-BBN[7-14]NH2]	–	–	–	–	–	–	–	–	–	–	–	–	–	–	–	–	–	–	–	–	tissue uptake at 1 h [1]: 1.16 ± 0.59 %ID/g
CSCC[C@H](NC(=O)[C@H](CC(C)C)NC(=O)[C@H](Cc1cnc[nH]1)NC(=O)CNC(=O)[C@@H](NC(=O)[C@H](C)NC(=O)[C@H](Cc1c[nH]c2ccccc12)NC(=O)[C@H](CCC(N)=O)NC(=O)CN1CCN(CC(=O)O)CCN(CC(=O)O)CCN(CC(=O)O)CC1)C(C)C)C(N)=O [111In-DOTA-0-BBN[7-14]NH2] [metal not drawn]	–	1.78 ± 0.37	–	–	0.10 ± 0.02	–	–	–	–	0.25 ± 0.04	–	–	0.10 ± 0.03	–	–	–	–	0.03 ± 0.02	0.44 ± 0.64	0.06 ± 0.03	–

— patent US20060067886A1, “Gastrin receptor-avid peptide conjugates” (priority 1997, published 2006)
